Test: soluble fraction after stress (log2 fold change); higher = more stays soluble; pooled small domains, quantitative proteomics
Settings: stress: 75 degC
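Further: 20 min heating vs room temperature control held 20 min.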

First: HMNVTIGESIKNVINHYGTPIYSYNPNNQEKYYEFHTNKGVLVVTAIGKKNTGYVTRVSMTY
Second: HMNVVDTGTDANYRVKISAVNLNMRLGPSTSYKSKGYITPGNYTIIKTSGDWGKVKETGYWVALKYTSKIN
The “soluble fraction (log2)” value of the first is higher: -1.04 for the first, -3.16 for the second.

Going from “HMNVVINNELVSLMVEAMKDGVSSKSIQEEFEGYKISGKTITKKVLTAHVNKALEVFADMQE” to “HMNYDPEEKITQIRTMLEIHSRIEFNEIITPATRRGEIIIIFLALLHMIKRGYIVVRQHRLFGDITIFARD”, the “soluble fraction (log2)” value rises from -0.582 to 0.0974.

First: HMNYKDQISRYFQQAFHIYPKYQTMKNEEGNFTSKIFKDDKMIIEGVGKSKKKAEQDVSRKALIHFNVL
Second: HMNYKNAIGQVGSVYVPIPPNREGLGQIEVKVQSRVSTVRAVSDHSERLENRVAVRVIELVDDRTLLVEKL
The “soluble fraction (log2)” value of the first is higher: -0.376 for the first, -1.15 for the second.

Compared with “HMNYTSEDIKLASELFFHLLNNRILPANDVLASQYYDNNEIREILENMAEEGGLRIFGTRENLHLVSNGE”, “HMNYYDLLGIPKSATKQQIRKAYRTKAKEFHPDVNGPFNSHMHFLLLKQAYETLMDANMRHVYDMALIS” is lower in “soluble fraction (log2)” value: 0.00512 for the first, -2.4 for the second.

Going from “HMPADHYEVLGIARDADAAEVKRAYRRLARESHPDANHGDSGAEVRFKAVSAAYEVLSDPERRARYDRFGH” to “HMPANVELLRTFTNKTGTKIKARIVAVSDNKVKLIRDDSKKFIVPIDSLSEEDQKYLKDWIANEVGEQ”, the “soluble fraction (log2)” value falls from 0.0495 to -0.16.

“HMPARTANEEAIRKYLLNHDSITRKETQALLKTGQSAAGRILKEMVENGWLARIGNGRSTGYELR” and “HMPATIEGIRLYLSSGLIKGVGEEMASRIVKAFGTDTIRVLDEEPERLLKVRGVGKKSLDRIRTSWAEH” are within 0.2 log units of each other in “soluble fraction (log2)” value: -0.222 for the first, -0.366 for the second.

Compared with “HMPATPDATVQAVQQRLNELGYDVGSADGLMGRGTRSAIIAFQQDRGLAATGVADQALLLQLQP”, “HMPAWKINQELQATVIATKANQTRLRIEGQTFETQTAIALKPGQSLLIKVVSLEPQISFALI” is lower in “soluble fraction (log2)” value: 0.105 for the first, -2.45 for the second.

Compared with “HMPDFLAELAARMERDAVTEAQIRQVVAQKGHYPEEVSPAQYHPDFFRQWLFPHWEKIVDVIRSSPEYTP”, “HMPDGTATATASVNVRSGASTLSPVLGVLRVGESIGVTGQANGGWVPVNYNGRAGYVYAAYLSFD” is lower in “soluble fraction (log2)” value: -0.126 for the first, -0.915 for the second.

First: HMPDKIDSAAQGILDKLIRNDGFMAVTDKSPPEAIYKLFGVSKKVFKQAIGSLYKNRLITIEDAGLRIIPQ
Second: HMPDLKIGKDHRLAEYIETKIAEDGYSPGAVLGEIKAKGLEFETEISKPTLYSYIDKGIFLTITNKELPV
The “soluble fraction (log2)” value of the first is lower: -0.481 for the first, 0.25 for the second.

Going from “HMPDLQKAIDDLLQVVDKRLNTSFESILNEVNSEKEAVAFFLALLEAVRWGFVKASQSDEGIKIEK” to “HMPDLSAEERNIVEALQKSNDLQVNLIAVKTGMDMGTLSATLFGLEMKGLVKLMAGGTYHLI”, the “soluble fraction (log2)” value falls from 0.211 to -1.11.

Compared with “HMPDLSEDEEKIVSLLRDNNDLNVNIIVMRTQLPSATVTSSLFSLELKGVVRMYAGGMYHLM”, “HMPDLSYVDEVLNRYKGHKGTLITVLQQVQAHKGYLEKEALERVARSMGVPTARIYGVVTFYAQFR” is higher in “soluble fraction (log2)” value: -3.73 for the first, 0.138 for the second.

Going from “HMPDPVHAAYLRLAVLLTEQAIGPQVTEQQIRDRFALTRRQTSDLMGRLIREGIAEKRAGYGWNINTELTA” to “HMPDVAIMNVSVEPEKKVVRLQVKAISLEALLDFSTRLEAIPARVELQNHTPSKELSQKWAVNATLIVIY”, the “soluble fraction (log2)” value rises from -1.16 to 0.482.

Compared with “HMPDYYAILEVERTADAKTIKAAYRKLALAYHPDRNPGDQAAEERFKQINEAYAVLSDPEKRARYDRYGSV”, “HMPEFKDMLKFFRMREHLSQSELAEKLGISASTVSMYEVGRRQPDFETEEKIADFFNTDLNTLRG” is lower in “soluble fraction (log2)” value: -0.131 for the first, -0.693 for the second.

First: HMPEGTYLEKLAIENNNLQLIGLSREASQLVQLLQDAPQWRKVNLTGVLQADGAASGRDRFTMTAELQ
Second: HMPEKNQITHLIRLIDDRDEFVRKRVREQLIKLGEDAIPFLEMAAKTENLEIQRIASEIIQAIIPRQ
The “soluble fraction (log2)” value of the first is higher: 0.0999 for the first, -0.745 for the second.

“HMPELPPHELLRALMVEHDIKQSELPEVGPQPVVSDVLAGKRALNLRQVAALAARFHVPMEVFT” and “HMPELSITDADIIVAGGRGMGSAENFGLIRELAGLLGAAVGASRVVVDAEWVDQKHLIGQTGK” are within 0.2 log units of each other in “soluble fraction (log2)” value: -0.161 for the first, -0.0455 for the second.

Going from “HMPELTASDEADLKALVGGDQGFEQMANWARSNLGEEEINRFDAVVDSNNKDAIHMAIQAMQARMNA” to “HMPELTERELEVLLLTARGLPSSEAARLLFITRRTVAAHLTSIYGKLGARNKTEAVLAALKRGIIMLDQIG”, the “soluble fraction (log2)” value falls from -0.107 to -3.99.

Going from “HMPESYFEMLQKLLETYALPQEGTIYFSAADLARMPQKFEDVIEQTAQKKGGHLVVSKEPKDMDGGFVLV” to “HMPEVAHTIDMEAVNKHWDELPEREQRILVMRFYGNLTQTEIGERLGISQMHVSRLLARALSHLKSRLLD”, the “soluble fraction (log2)” value falls from -1.83 to -3.89.

“HMPEVYPFEVAEDDAGKRLDVFLSEEIEEFTRSFIQKLIAGGLASVNRAPARASYRVKPRDLVELQVPE” and “HMPFNREYWIEQLLKEVGLMGTPYAELDKHEVELDSPTGRASGFKVNAKTYVDQQLLFIENEYNNQPE” are within 0.2 log units of each other in “soluble fraction (log2)” value: -0.598 for the first, -0.533 for the second.

Compared with “HMPFREGDEVFVELVEPHMYNEDDAVAKLDGYVVAVRGAAGLVGQKVLVRIERVGRSSAEATLVA”, “HMPGEIKKIPINSISYQDLKQHPYFDAYLAKQVIKYRETKGRIENIEQFREATRAYQSLIEKVTPYLDFE” is lower in “soluble fraction (log2)” value: -0.0609 for the first, -0.302 for the second.

First: HMPGGLSAEDVEKMVEKVLTVNGDVVEEIRSGRDPKGKKIKFLAGLVMRDARGQADAAAVSGILERRLKEG
Second: HMPGLITLEAAKTTALNHAKLTADQVTFVKQKLDRDDGRQVYEIEFYTSDYKEYDYEIDAVSGLILEVDYD
The “soluble fraction (log2)” value of the first is higher: 0.0256 for the first, -0.866 for the second.

Compared with “HMPGLPLWAFSTRGSAIHTGASFRDGDGLLFGPESRGLPDWLLEEVGQDRVLRLPMRPGSRSLNLSNAV”, “HMPGPAEMPGWITARAKKLGGQITPEAARALAAEMGSDTEQASREIEKLLTYVDYRRPVEEEDVALLTA” is higher in “soluble fraction (log2)” value: -0.577 for the first, 0.16 for the second.

First: HMPGRKTTFEERLSIIEDLIKHDVNYSWAVDKYHVSYQQVYGWYQKYRKSGNDPQSLRDRRGK
Second: HMPGRPSRISDAVKDQIDHDLRKNPRDLGYSQNLWDGKLLSHHLKERYQITLGIRQAQRLFHQLGFRQR
The “soluble fraction (log2)” value of the first is lower: -3.65 for the first, -0.846 for the second.

“HMPGVLEVDTGGVAAVAYVDGVEVGRVPGELQIAAGTKTLMLKADRYLDYVQSLEIDGLGKRQLLVATLQS” and “HMPGVTTQLHRLNGTEETYIIKRGDGVLEIDGEKSELQLGDAIIIPAGASQKISNIGDEDLE” are within 0.2 log units of each other in “soluble fraction (log2)” value: -0.0797 for the first, -0.159 for the second.

Going from “HMPHFFISTSDVNQDIITVSDKENFHHIARVLRSKVGETLLLVDENRTQYKVVIQNIDSKSITTKVVETLK” to “HMPHFGVVLQMDDWKTLRDRLEARDDIDWVMKPNLRFEGQPGEQATLFIRDPSGNALEFKGFADLSQVF”, the “soluble fraction (log2)” value rises from -0.925 to -0.116.

“HMPHSTTDFSVSPDERQIVYSTNLQGRYDLWALDHNQGYPYPLTKKGQMSFFIKHLPGSQMILTGFD” and “HMPIDQAKRKKEIIQNFGIRKIYKFSEIFDLKFGRDNIIVTFLIILDMIKEGVVEINENKEEIEFEYK” are within 0.2 log units of each other in “soluble fraction (log2)” value: -0.161 for the first, -0.152 for the second.

Compared with “HMPIKYTHKGYTINVSRSKMNGTTFVKVVDPKGQVIQQSQDNRIQDVNQLVTTMKQYIDTLKPS”, “HMPILRDEVYLSIKEAILTGELAPGERISIGRLLPQIGFSPTPIREALLKLEQEGFVSRLQRGGFIVSR” is lower in “soluble fraction (log2)” value: -0.274 for the first, -1.91 for the second.

Compared with “HMPIQLLSEKYMDEHWDELDKDEVSLYQNMSIRFLLKHEDDINWKLYSTNPFISIDTIDFFKDKISWVNI”, “HMPKAKASARNDTRTRLLTIGTEVLSQKGFASTGVEEILSVAGVPKGAFYYYFESKAAFGLAVIENYE” is higher in “soluble fraction (log2)” value: -2.34 for the first, 0.259 for the second.

With “HMPKAMAIMSEIAGTVHIDDTKKSRHVEVTGVDDNGAPVTKSYLIPFGHRLKVMEGDVLVKGALLT” the “soluble fraction (log2)” value was -0.0702.

Reference: the domain aggregation screens of Martell et al. (2025)
